Experimental data as given in patent US20230324404A1 (Takeda / Millennium, published 2023).
Like-named read-outs stand apart in the source and are kept apart here.

B1: Anti-ZIKV #6 (IgG2c kappa, Clone ZV-67) (antibody, V domains shown)
VH: QAQLQQSGTGLARPGASVKLSCKASGYTFTSYGISWVTQRAGQGLEWIGVIYPRSGNTYYNEKFRGKATLTADKSSSSAYMELRGLTAEDSAVYFCARENYGSVYWGQGTTLTVSS
VL: DIVMTQSQKFMSTSVGDRVSITCKASQNVGTAVAWYQQKPGQSPKLLIYSASNRYTGVPDRFTGSGSGTDFTLTISNMQSEDLADYFCQQFSSYPYTFGGGTKLEIK
B2: Anti-ZIKV #5 (Clone 306-2) (antibody, V domains shown)
VH: QSLEESGGDLVKPGASLTLTCTASGFDFSDRYYMCWVRQAPGKGLEWIGCIYVGSGDTYYASWAKGRFTISRTSSTTVTLQMTRLTAADTATYFCARHPGTYFTLWGPGTLVTVSS
VL: DVVMTQTPSSVSAAVGGTVTINCQASQNIVNNLAWYQQRPGQPPKLLIYDTSTLASGVPSRFKGSGSGTEFTLTISDLECADAATYYCQTYYYYNKIINGFGGGTEVVVKG
B3: Anti-ZIKV #7 (IgG2a kappa, Clone ZKA-64) (antibody, V domains shown)
VH: QVQLVQSGAEVKKPGASVKVSCKASGYTFTGYHIDWVRQARGQGLEWMGRINPNSGGTNYAQKFQGRVTMTRDTSISTAYMQLSRLRSDDSAVYYCARMSSSIWGFDHWGQGTLVTVSS
VL: EIVMTQSPATLSVSPGERATLSCRASQSVLINLAWYQQKPGQAPRLLIYGASSRATGIPARFSGSGSGTEFTLTISSLQSEDFAVYYCQQYNDWPPITFGQGTRLEIK
B4: Anti-ZIKV #9 (Clone 181-4) (antibody)
heavy: QAQLEESGGDLVKPEGSLTLTCTASGFSFTDRHYMCWVRQAPGKGLEWIACVYPGSSGSTYYASWARGRFTISKTSSTTVTLRMTSLTAADTATYFCARSSYPDSSGYSYGMDLWGPGTLVTVSSGQPKAPSVFPLAPCCGDTPSSTVTLGCLVKGYLPEPVTVTWNSGTLTNGVRTFPSVRQSSGLYSLSSVVSVTSSSQPVTCNVAHPATNTKVDKTVAPSTCSKPTCPPPELLGGPSVFIFPPKPKDTLMISRTPEVTCVVVDVSQDDPEVQFTWYINNEQVRTARPPLREQQFNSTIRVVSTLPIAHQDWLRGKEFKCKVHNKALPAPIEKTISKARGQPLEPKVYTMGPPREELSSRSVSLTCMINGFYPSDISVEWEKNGKAEDNYKTTPAVLDSDGSYFLYSKLSVPTSEWQRGDVFTCSVMHEALHNHYTQKSISRSPGK
light: DIVMTQTPASVEAAVGGTVTIKCQASQNINSNLAWYQQKPGQRPKFLMYLTSKLASGVPSRFRGSGSGTQFTLTISDLECADAATYYCQTYYDISNYGYAFGGGTEVVVKGDPVAPTVLIFPPAADQVATGTVTIVCVANKYFPDVTVTWEVDGTTQTTGIENSKTPQNSADCTYNLSSTLTLTSTQYNSHKEYTCKVTQGTTSVVQSFNRGDC
B5: Anti-ZIKV #10 (Clone 329-2) (antibody)
heavy: QAQLEESGGDLVKPEGSLTLTCTASGFSFTDRHYMCWVRQAPGKGLEWIACVYPGSSGSTYYASWARGRFTISKTSSTTVTLRMTSLTAADTATYFCARSSYPDSSGYSYGMDLWGPGTLVTVSSGQPKAPSVFPLAPCCGDTPSSTVTLGCLVKGYLPEPVTVTWNSGTLTNGVRTFPSVRQSSGLYSLSSVVSVTSSSQPVTCNVAHPATNTKVDKTVAPSTCSKPTCPPPELLGGPSVFIFPPKPKDTLMISRTPEVTCVVVDVSQDDPEVQFTWYINNEQVRTARPPLREQQFNSTIRVVSTLPIAHQDWLRGKEFKCKVHNKALPAPIEKTISKARGQPLEPKVYTMGPPREELSSRSVSLTCMINGFYPSDISVEWEKNGKAEDNYKTTPAVLDSDGSYFLYSKLSVPTSEWQRGDVFTCSVMHEALHNHYTQKSISRSPGK
light: DIVMTQTPASVEAAVGGTVTIKCQASQNINSNLAWYQQKPGQRPKFLMYLTSKLASGVPSRFRGSGSGTQFTLTISDLECADAATYYCQTYYDISNYGYAFGGGTEVVVKGDPVAPTVLIFPPAADQVATGTVTIVCVANKYFPDVTVTWEVDGTTQTTGIENSKTPQNSADCTYNLSSTLTLTSTQYNSHKEYTCKVTQGTTSVVQSFNRGDC
B6: Anti-ZIKV #3 (Clone 270-12) (antibody, V domains shown)
VH: QAQLEESGGDLVKPEGSLTLTCTASGFSFTDRHYMCWVRQAPGKGLEWIACVYPGSSGSTYYASWARGRFTISKTSSTTVTLRMTSLTAADTATYFCARSSYPDSSGYSYGMDLWGPGTLVTVSS
VL: DIVMTQTPASVEAAVGGTVTIKCQASQDINSNLAWYQQKPGQRPKFLMYLTSKLASGVPSRFRGSGSGTQFTLTISDLECADAATYYCQTYYDISNYGYAFGGGTEVVVKG
B7: Anti-ZIKV #2 (Clone 242-3) (antibody, V domains shown)
VH: QAQLEESGGDLVKPEGSLTLTCTASGFSFTDRHYMCWIRQAPGKGLEWIACVYPGSSGSTYYASWARGRFTISKTSSTTVTLRMTSLTAADTATYFCARSSYPDSSGYSYGMDLWGPGTLVTVSS
VL: DIVMTQTPASVEAAVGGTVTIKCQASQNINSNLAWYQQKPGQRPKFLMYLTSKLASGVPSRFRGSGSGTQFTLTISDLECADAATYYCQTYYDISNYGYAFGGGTEVVVKG
B8: Anti-ZIKV #8 (Clone 260-2) (antibody)
heavy: QAQLEESGGDLVKPEGSLTLTCTASGFSFTDRHYMCWVRQAPGKGLEWIACVYPGSSGSTYYASWARGRFTISKTSSTTVTLRMTSLTAADTATYFCARSSYPDSSGYSYGMDLWGPGTLVTVPSGQPKAPSVFPLAPCCGDTPSSTVTLGCLVKGYLPEPVTVTWNSGTLTNGVRTFPSVRQSSGLYSLSSVVSVTSSSQPVTCNVAHPATNTKVDKTVAPSTCSKPTCPPPELLGGPSVFIFPPKPKDTLMISRTPEVTCVVVDVSQDDPEVQFTWYINNEQVRTARPPLREQQFNSTIRVVSTLPIAHQDWLRGKEFKCKVHNKALPAPIEKTISKARGQPLEPKVYTMGPPREELSSRSVSLTCMINGFYPSDISVEWEKNGKAEDNYKTTPAVLDSDGSYFLYSKLSVPTSEWQRGDVFTCSVMHEALHNHYTQKSISRSPGK
light: DIVMTQTPASVEAAVGGTVTIKCQASQNINSNLAWYQQKPGQRPKFLMYLTSKLASGVPSRFRGSGSGTQFTLTISDLECADAATYYCQTYYDISNYGYAFGGGTEVVVKGDPVAPTVLIFPPAADQVATGTVTIVCVANKYFPDVTVTWEVDGTTQTTGIENSKTPQNSADCTYNLSSTLTLTSTQYNSHKEYTCKVTQGTTSVVQSFNRGDC

Legend:
[1] = molecular target: T1, ZIKV VLP (zika virus like particle, isolate Z1106033) (Zika virus isolate Z1106033 (Suriname, …, UniProt A0A024B7W1 123-794))
T1 construct: also called zika VLP; ZIKV VLPs

[2] = molecular target: T2, DENV2 VLP (strain Thailand/16681/84) (Dengue virus serotype 2 strain …); experiment: microsphere immunoassay, DENV2 VLP-coupled microspheres
T2 construct: also called dengue-2 virus like particle

[3] = molecular target: T3, DENV3 VLP (strain Sri Lanka D3/H/IMTSSA-SRI/2000/1266) (Dengue virus serotype 3 strain Sri …); experiment: microsphere immunoassay, DENV3 VLP-coupled microspheres
T3 construct: also called dengue-3 virus like particle

[4] = molecular target: T1, ZIKV VLP (zika virus like particle, …); remark: listed apart in the source
[5] = molecular target: T1, ZIKV VLP (zika virus like particle, …); remark: listed apart in the source
[6] = molecular target: T4, DENV1 VLP (strain Puerto Rico/US/BID-V853/1998) (Dengue virus serotype 1 strain Puerto …); experiment: microsphere immunoassay, DENV1 VLP-coupled microspheres
T4 construct: also called dengue-1 virus like particle

[7] = molecular target: T5, DENV4 VLP (strain Dominica/814669/1981) (Dengue virus serotype 4 strain …, UniProt P09866 114-732); experiment: microsphere immunoassay, DENV4 VLP-coupled microspheres
T5 construct: also called dengue-4 virus like particle

[8] = molecular target: T2, DENV2 VLP (strain Thailand/16681/84); experiment: microsphere immunoassay, DENV2 VLP-coupled microspheres, 120 min incubation
[9] = molecular target: T5, DENV4 VLP (strain Dominica/814669/1981); experiment: microsphere immunoassay, DENV4 VLP-coupled microspheres, 120 min incubation
[10] = molecular target: T4, DENV1 VLP (strain Puerto …); experiment: microsphere immunoassay, DENV1 VLP-coupled microspheres, 120 min incubation
[11] = molecular target: T3, DENV3 VLP (strain Sri Lanka …); experiment: microsphere immunoassay, DENV3 VLP-coupled microspheres, 120 min incubation

Row | Binder | EC25 [1] [µg/mL] | EC50 [1] [µg/mL] | binding result [2] | binding result [3] | EC50 [4] [µg/mL] | EC50 [5] [µg/mL] | binding result [6] | binding result [7] | binding result [8] | binding result [9] | binding result [10] | binding result [11]
1 | B1 | 0.0081 | 0.0273 | no binding (tested: 0.001 to 20 µg/mL) | no binding (tested: 0.001 to 20 µg/mL) | 0.134 | 0.677 | no binding (tested: 0.001 to 20 µg/mL) | no binding (tested: 0.001 to 20 µg/mL) |  |  |  | 
2 | B2 | 0.0047 | 0.0158 | no binding (tested: 0.001 to 20 µg/mL) | no binding (tested: 0.001 to 20 µg/mL) | 0.066 | 0.256 | no binding (tested: 0.001 to 20 µg/mL) | no binding (tested: 0.001 to 20 µg/mL) |  |  |  | 
3 | B3 | 0.0296 | 0.101 | no binding (tested: 0.001 to 20 µg/mL) | no binding (tested: 0.001 to 20 µg/mL) | 0.423 | 1.18 | no binding (tested: 0.001 to 20 µg/mL) | no binding (tested: 0.001 to 20 µg/mL) |  |  |  | 
4 | B4 | 0.0059 | 0.0156 |  |  |  |  |  |  | no binding (tested: 0.001 to 20 µg/mL) | no binding (tested: 0.001 to 20 µg/mL) | no binding (tested: 0.001 to 20 µg/mL) | no binding (tested: 0.001 to 20 µg/mL)
5 | B5 | 0.0043 | 0.0145 |  |  |  |  |  |  | no binding (tested: 0.001 to 20 µg/mL) | no binding (tested: 0.001 to 20 µg/mL) | no binding (tested: 0.001 to 20 µg/mL) | no binding (tested: 0.001 to 20 µg/mL)
6 | B6 | 0.0045 | 0.0144 | no binding (tested: 0.001 to 20 µg/mL) | no binding (tested: 0.001 to 20 µg/mL) | 0.061 | 0.181 | no binding (tested: 0.001 to 20 µg/mL) | no binding (tested: 0.001 to 20 µg/mL) |  |  |  | 
7 | B7 | 0.0024 | 0.008 | no binding (tested: 0.001 to 20 µg/mL) | no binding (tested: 0.001 to 20 µg/mL) | 0.044 | 0.14 | no binding (tested: 0.001 to 20 µg/mL) | no binding (tested: 0.001 to 20 µg/mL) |  |  |  | 
8 | B8 | 0.0075 | 0.0252 |  |  |  |  |  |  | no binding (tested: 0.001 to 20 µg/mL) | no binding (tested: 0.001 to 20 µg/mL) | no binding (tested: 0.001 to 20 µg/mL) | no binding (tested: 0.001 to 20 µg/mL)
